Measurements as given in publication PMC9984531, “Cryo-EM structure of human heptameric pannexin 2 channel” (Nature Communications, 2023).

Target: the molecule itself
Assay: cryo-EM structure; single-particle cryo-EM of purified Panx2-NT (Superose 6 peak at 16.0 ml), 50 mM Tris pH 7.5, 150 mM NaCl, 0.02% GDN, ~10 mg/ml; C1 map without imposed symmetry, final refinement with C7 symmetry at ~3.4 Å

B1: human pannexin 2 N-terminal domain (Panx2-NT, amino acids 1-410) (domain or fragment, UniProt Q96RD6-3 1-410, looked up)
chain: MHHLLEQSADMATALLAGEKLRELILPGAQDDKAGALAALLLQLKLELPFDRVVTIGTVLVPILLVTLVFTKNFAEEPIYCYTPHNFTRDQALYARGYCWTELRDALPGVDASLWPSLFEHKFLPYALLAFAAIMYVPALGWEFLASTRLTSELNFLLQEIDNCYHRAAEGRAPKIEKQIQSKGPGITEREKREIIENAEKEKSPEQNLFEKYLERRGRSNFLAKLYLARHVLILLLSAVPISYLCTYYATQKQNEFTCALGASPDGAAGAGPAVRVSCKLPSVQLQRIIAGVDIVLLCVMNLIILVNLIHLFIFRKSNFIFDKLHKVGIKTRRQWRRSQFCDINILAMFCNENRDHIKSLNRLDFITNESDLMYDNVVRQLLAALAQSNHDATPTVRDSGVQTVDPSAN
modifications: N-glycosylated on N86 (extra density observed near N86)
notes: Pannexin 2 (PANX2), H. sapiens, NCBI NP_443071.2, 677 residues in full; construct Panx2-NT holds amino acids 1-410, made to mimic the caspase-cleaved truncation; the model holds residues 41-184, 188-266, 273-373 and 377-388; also called C-terminal truncated Panx2; human N-terminal Panx2; source: HEK293F, transient transfection (PEI), purified (DDM solubilisation, anti-FLAG M2 agarose, Superose 6 …)
  stoichiometry N: 7
